Measurements published in ChEMBL document CHEMBL2073850, “Human organic anion transporters and human organic cation transporters mediate renal transport of prostaglandins” (J Pharmacol Exp Ther, 2002).

Key:
[1] = substrate: CCCCC[C@H](O)/C=C/[C@@H]1[C@@H](C/C=C\CCCC(=O)O)[C@@H](O)C[C@H]1O; test: TP_TRANSPORTER: uptake in OAT1-expressing S2 cells; assay type: functional, cell-based
[2] = substrate: CCCCC[C@H](O)/C=C/[C@H]1[C@H](O)CC(=O)[C@@H]1C/C=C\CCCC(=O)O; test: cells, lysate or membranes named
[3] = substrate: CCCCC[C@H](O)/C=C/[C@H]1[C@H](O)CC(=O)[C@@H]1C/C=C\CCCC(=O)O; test: (§1) TP_TRANSPORTER: uptake in OAT2-expressing S2 cells; assay type: functional, cell-based
[4] = substrate: CCCCC[C@H](O)/C=C/[C@@H]1[C@@H](C/C=C\CCCC(=O)O)[C@@H](O)C[C@H]1O; test: as §1; assay type: functional, cell-based
[5] = substrate: CCCCC[C@H](O)/C=C/[C@H]1[C@H](O)CC(=O)[C@@H]1C/C=C\CCCC(=O)O; test: (§2) TP_TRANSPORTER: uptake in OCT1-expressing S2 cells; assay type: functional, cell-based
[6] = substrate: CCCCC[C@H](O)/C=C/[C@@H]1[C@@H](C/C=C\CCCC(=O)O)[C@@H](O)C[C@H]1O; test: as §2; assay type: functional, cell-based
[7] = substrate: CCCCC[C@H](O)/C=C/[C@H]1[C@H](O)CC(=O)[C@@H]1C/C=C\CCCC(=O)O; test: (§3) TP_TRANSPORTER: uptake in OAT3-expressing S2 cells; assay type: functional, cell-based
[8] = substrate: CCCCC[C@H](O)/C=C/[C@@H]1[C@@H](C/C=C\CCCC(=O)O)[C@@H](O)C[C@H]1O; test: as §3; assay type: functional, cell-based
[9] = substrate: CCCCC[C@H](O)/C=C/[C@H]1[C@H](O)CC(=O)[C@@H]1C/C=C\CCCC(=O)O; test: (§4) TP_TRANSPORTER: uptake in OCT2-expressing S2 cells; assay type: functional, cell-based
[10] = substrate: CCCCC[C@H](O)/C=C/[C@@H]1[C@@H](C/C=C\CCCC(=O)O)[C@@H](O)C[C@H]1O; test: as §4; assay type: functional, cell-based
[11] = substrate: CCCCC[C@H](O)/C=C/[C@H]1[C@H](O)CC(=O)[C@@H]1C/C=C\CCCC(=O)O; test: (§5) TP_TRANSPORTER: uptake in OAT4-expressing S2 cells; assay type: functional, cell-based
[12] = substrate: CCCCC[C@H](O)/C=C/[C@@H]1[C@@H](C/C=C\CCCC(=O)O)[C@@H](O)C[C@H]1O; test: as §5; assay type: functional, cell-based

B1: Solute carrier family 22 member 6 (Homo sapiens) (protein)
chain: MAFNDLLQQVGGVGRFQQIQVTLVVLPLLLMASHNTLQNFTAAIPTHHCRPPADANLSKNGGLEVWLPRDRQGQPESCLRFTSPQWGLPFLNGTEANGTGATEPCTDGWIYDNSTFPSTIVTEWDLVCSHRALRQLAQSLYMVGVLLGAMVFGYLADRLGRRKVLILNYLQTAVSGTCAAFAPNFPIYCAFRLLSGMALAGISLNCMTLNVEWMPIHTRACVGTLIGYVYSLGQFLLAGVAYAVPHWRHLQLLVSAPFFAFFIYSWFFIESARWHSSSGRLDLTLRALQRVARINGKREEGAKLSMEVLRASLQKELTMGKGQASAMELLRCPTLRHLFLCLSMLWFATSFAYYGLVMDLQGFGVSIYLIQVIFGAVDLPAKLVGFLVINSLGRRPAQMAALLLAGICILLNGVIPQDQSIVRTSLAVLGKGCLAASFNCIFLYTGELYPTMIRQTGMGMGSTMARVGSIVSPLVSMTAELYPSMPLFIYGAVPVAASAVTVLLPETLGQPLPDTVQDLESRWAPTQKEAGIYPRKGKQTRQQQEHQKYMVPLQASAQEKNGL
[1]
  Km: 0.575 µM
[2]
  Km: 0.97 µM

B2: Solute carrier family 22 member 7 (Homo sapiens) (protein)
chain: MGFEELLEQVGGFGPFQLRNVALLALPRVLLPLHFLLPIFLAAVPAHRCALPGAPANFSHQDVWLEAHLPREPDGTLSSCLRFAYPQALPNTTLGEERQSRGELEDEPATVPCSQGWEYDHSEFSSTIATESQWDLVCEQKGLNRAASTFFFAGVLVGAVAFGYLSDRFGRRRLLLVAYVSTLVLGLASAASVSYVMFAITRTLTGSALAGFTIIVMPLELEWLDVEHRTVAGVLSSTFWTGGVMLLALVGYLIRDWRWLLLAVTLPCAPGILSLWWVPESARWLLTQGHVKEAHRYLLHCARLNGRPVCEDSFSQEAVSKVAAGERVVRRPSYLDLFRTPRLRHISLCCVVVWFGVNFSYYGLSLDVSGLGLNVYQTQLLFGAVELPSKLLVYLSVRYAGRRLTQAGTLLGTALAFGTRLLVSSDMKSWSTVLAVMGKAFSEAAFTTAYLFTSELYPTVLRQTGMGLTALVGRLGGSLAPLAALLDGVWLSLPKLTYGGIALLAAGTALLLPETRQAQLPETIQDVERKSAPTSLQEEEMPMKQVQN
[3]
  Km: 0.713 µM
[4]
  Km: 0.425 µM

B3: Solute carrier family 22 member 1 (Homo sapiens) (protein)
chain: MPTVDDILEQVGESGWFQKQAFLILCLLSAAFAPICVGIVFLGFTPDHHCQSPGVAELSQRCGWSPAEELNYTVPGLGPAGEAFLGQCRRYEVDWNQSALSCVDPLASLATNRSHLPLGPCQDGWVYDTPGSSIVTEFNLVCADSWKLDLFQSCLNAGFLFGSLGVGYFADRFGRKLCLLGTVLVNAVSGVLMAFSPNYMSMLLFRLLQGLVSKGNWMAGYTLITEFVGSGSRRTVAIMYQMAFTVGLVALTGLAYALPHWRWLQLAVSLPTFLFLLYYWCVPESPRWLLSQKRNTEAIKIMDHIAQKNGKLPPADLKMLSLEEDVTEKLSPSFADLFRTPRLRKRTFILMYLWFTDSVLYQGLILHMGATSGNLYLDFLYSALVEIPGAFIALITIDRVGRIYPMAMSNLLAGAACLVMIFISPDLHWLNIIIMCVGRMGITIAIQMICLVNAELYPTFVRNLGVMVCSSLCDIGGIITPFIVFRLREVWQALPLILFAVLGLLAAGVTLLLPETKGVALPETMKDAENLGRKAKPKENTIYLKVQTSEPSGT
[5]
  Km: 0.657 µM
[6]
  Km: 0.477 µM

B4: Organic anion transporter 3 (Homo sapiens) (protein)
chain: MTFSEILDRVGSMGHFQFLHVAILGLPILNMANHNLLQIFTAATPVHHCRPPHNASTGPWVLPMGPNGKPERCLRFVHPPNASLPNDTQRAMEPCLDGWVYNSTKDSIVTEWDLVCNSNKLKEMAQSIFMAGILIGGLVLGDLSDRFGRRPILTCSYLLLAASGSGAAFSPTFPIYMVFRFLCGFGISGITLSTVILNVEWVPTRMRAIMSTALGYCYTFGQFILPGLAYAIPQWRWLQLTVSIPFFVFFLSSWWTPESIRWLVLSGKSSKALKILRRVAVFNGKKEEGERLSLEELKLNLQKEISLAKAKYTASDLFRIPMLRRMTFCLSLAWFATGFAYYSLAMGVEEFGVNLYILQIIFGGVDVPAKFITILSLSYLGRHTTQAAALLLAGGAILALTFVPLDLQTVRTVLAVFGKGCLSSSFSCLFLYTSELYPTVIRQTGMGVSNLWTRVGSMVSPLVKITGEVQPFIPNIIYGITALLGGSAALFLPETLNQPLPETIEDLENWSLRAKKPKQEPEVEKASQRIPLQPHGPGLGSS
[7]
  Km: 0.345 µM
[8]
  Km: 1.09 µM

B5: Solute carrier family 22 member 2 (Homo sapiens) (protein)
chain: MPTTVDDVLEHGGEFHFFQKQMFFLLALLSATFAPIYVGIVFLGFTPDHRCRSPGVAELSLRCGWSPAEELNYTVPGPGPAGEASPRQCRRYEVDWNQSTFDCVDPLASLDTNRSRLPLGPCRDGWVYETPGSSIVTEFNLVCANSWMLDLFQSSVNVGFFIGSMSIGYIADRFGRKLCLLTTVLINAAAGVLMAISPTYTWMLIFRLIQGLVSKAGWLIGYILITEFVGRRYRRTVGIFYQVAYTVGLLVLAGVAYALPHWRWLQFTVSLPNFFFLLYYWCIPESPRWLISQNKNAEAMRIIKHIAKKNGKSLPASLQRLRLEEETGKKLNPSFLDLVRTPQIRKHTMILMYNWFTSSVLYQGLIMHMGLAGDNIYLDFFYSALVEFPAAFMIILTIDRIGRRYPWAASNMVAGAACLASVFIPGDLQWLKIIISCLGRMGITMAYEIVCLVNAELYPTFIRNLGVHICSSMCDIGGIITPFLVYRLTNIWLELPLMVFGVLGLVAGGLVLLLPETKGKALPETIEEAENMQRPRKNKEKMIYLQVQKLDIPLN
[9]
  Km: 0.0289 µM
[10]
  Km: 0.334 µM

B6: Solute carrier family 22 member 11 (Homo sapiens) (protein)
chain: MAFSKLLEQAGGVGLFQTLQVLTFILPCLMIPSQMLLENFSAAIPGHRCWTHMLDNGSAVSTNMTPKALLTISIPPGPNQGPHQCRRFRQPQWQLLDPNATATSWSEADTEPCVDGWVYDRSVFTSTIVAKWDLVCSSQGLKPLSQSIFMSGILVGSFIWGLLSYRFGRKPMLSWCCLQLAVAGTSTIFAPTFVIYCGLRFVAAFGMAGIFLSSLTLMVEWTTTSRRAVTMTVVGCAFSAGQAALGGLAFALRDWRTLQLAASVPFFAISLISWWLPESARWLIIKGKPDQALQELRKVARINGHKEAKNLTIEVLMSSVKEEVASAKEPRSVLDLFCVPVLRWRSCAMLVVNFSLLISYYGLVFDLQSLGRDIFLLQALFGAVDFLGRATTALLLSFLGRRTIQAGSQAMAGLAILANMLVPQDLQTLRVVFAVLGKGCFGISLTCLTIYKAELFPTPVRMTADGILHTVGRLGAMMGPLILMSRQALPLLPPLLYGVISIASSLVVLFFLPETQGLPLPDTIQDLESQKSTAAQGNRQEAVTVESTSL
[11]
  Km: 0.154 µM
[12]
  Km: 0.692 µM
